# Reference: patent US8242083B2, “Kinase substrates” (PerkinElmer Health Sciences, Inc., priority 2008, dated 2012)
# Tests used:
# Assay type in all cases: biochemical
# TYRO3 = target: T1, TYRO3 (Homo sapiens, UniProt Q06418); experiment: TR-FRET kinase assay, TYRO3; conditions: Kinase Concentration 0.25 nM; 50 nM ULight-labeled substrate, 200 micromolar ATP, 2 hours
# T1 sequence (Q06418 41-890): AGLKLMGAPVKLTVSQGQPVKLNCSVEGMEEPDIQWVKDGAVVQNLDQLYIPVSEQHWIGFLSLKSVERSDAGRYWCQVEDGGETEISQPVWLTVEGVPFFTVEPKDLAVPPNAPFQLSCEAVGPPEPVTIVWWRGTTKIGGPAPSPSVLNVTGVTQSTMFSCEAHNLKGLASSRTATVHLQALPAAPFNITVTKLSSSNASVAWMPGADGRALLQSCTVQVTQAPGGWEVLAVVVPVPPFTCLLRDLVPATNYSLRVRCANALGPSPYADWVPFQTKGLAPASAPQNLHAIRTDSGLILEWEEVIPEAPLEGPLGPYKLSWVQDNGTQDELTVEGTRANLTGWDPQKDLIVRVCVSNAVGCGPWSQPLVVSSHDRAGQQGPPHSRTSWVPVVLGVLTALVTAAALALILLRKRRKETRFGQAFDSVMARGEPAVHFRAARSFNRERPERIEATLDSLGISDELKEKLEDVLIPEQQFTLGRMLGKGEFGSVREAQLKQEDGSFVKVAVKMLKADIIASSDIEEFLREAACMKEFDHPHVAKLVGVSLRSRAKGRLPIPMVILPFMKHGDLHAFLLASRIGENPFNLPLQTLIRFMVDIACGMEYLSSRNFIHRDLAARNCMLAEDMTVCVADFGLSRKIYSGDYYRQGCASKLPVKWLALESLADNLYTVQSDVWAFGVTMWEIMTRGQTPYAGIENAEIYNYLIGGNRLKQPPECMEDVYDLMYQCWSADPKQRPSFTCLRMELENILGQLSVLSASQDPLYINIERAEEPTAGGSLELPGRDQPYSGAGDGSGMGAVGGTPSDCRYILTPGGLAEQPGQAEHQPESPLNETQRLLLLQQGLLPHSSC
# Description: (§1) TR-FRET kinase assays are performed under standardized conditions: various individual kinases are incubated with 50 nM of kinase substrate BRB1 labeled with the TR-FRET acceptor dye ULight (PerkinElmer) and 200 micromolar ATP in 10 μL of kinase assay buffer (50 mM HEPES pH7.5, 10 mM MgCl2, 3 mM MnCl2, 1 mM EGTA, 2 mM DTT and 0.01% Tween-20) for 2 hours at room temperature. Reactions are stopped with EDTA, and anti-phospho-tyrosine antibodies (clone PT66) labeled with the TR-FRET europium chelate donor dye are added to a final concentration of 2 nM in a final volume of 20 μL. The TR-FRET signal emitted at 665 nm is read one hour after the addition of antibodies using a TR-FRET plate reader such as the Envision® Multilabel Plate reader (PerkinElmer). The emitted signal at 665 nm is proportional to the extent of peptide phosphorylation, Control reactions indicative of background are performed excluding ATP from the reaction.
# (§2) Assay conditions are identical to those used described for FIG. 1.
# KDR = KDR (Homo sapiens, UniProt P35968); experiment: TR-FRET kinase assay, KDR; conditions: Kinase Concentration 0.25 nM; 50 nM ULight-labeled substrate, 200 micromolar ATP, 2 hours
# Sequence of KDR (P35968 20-1356, species assumed): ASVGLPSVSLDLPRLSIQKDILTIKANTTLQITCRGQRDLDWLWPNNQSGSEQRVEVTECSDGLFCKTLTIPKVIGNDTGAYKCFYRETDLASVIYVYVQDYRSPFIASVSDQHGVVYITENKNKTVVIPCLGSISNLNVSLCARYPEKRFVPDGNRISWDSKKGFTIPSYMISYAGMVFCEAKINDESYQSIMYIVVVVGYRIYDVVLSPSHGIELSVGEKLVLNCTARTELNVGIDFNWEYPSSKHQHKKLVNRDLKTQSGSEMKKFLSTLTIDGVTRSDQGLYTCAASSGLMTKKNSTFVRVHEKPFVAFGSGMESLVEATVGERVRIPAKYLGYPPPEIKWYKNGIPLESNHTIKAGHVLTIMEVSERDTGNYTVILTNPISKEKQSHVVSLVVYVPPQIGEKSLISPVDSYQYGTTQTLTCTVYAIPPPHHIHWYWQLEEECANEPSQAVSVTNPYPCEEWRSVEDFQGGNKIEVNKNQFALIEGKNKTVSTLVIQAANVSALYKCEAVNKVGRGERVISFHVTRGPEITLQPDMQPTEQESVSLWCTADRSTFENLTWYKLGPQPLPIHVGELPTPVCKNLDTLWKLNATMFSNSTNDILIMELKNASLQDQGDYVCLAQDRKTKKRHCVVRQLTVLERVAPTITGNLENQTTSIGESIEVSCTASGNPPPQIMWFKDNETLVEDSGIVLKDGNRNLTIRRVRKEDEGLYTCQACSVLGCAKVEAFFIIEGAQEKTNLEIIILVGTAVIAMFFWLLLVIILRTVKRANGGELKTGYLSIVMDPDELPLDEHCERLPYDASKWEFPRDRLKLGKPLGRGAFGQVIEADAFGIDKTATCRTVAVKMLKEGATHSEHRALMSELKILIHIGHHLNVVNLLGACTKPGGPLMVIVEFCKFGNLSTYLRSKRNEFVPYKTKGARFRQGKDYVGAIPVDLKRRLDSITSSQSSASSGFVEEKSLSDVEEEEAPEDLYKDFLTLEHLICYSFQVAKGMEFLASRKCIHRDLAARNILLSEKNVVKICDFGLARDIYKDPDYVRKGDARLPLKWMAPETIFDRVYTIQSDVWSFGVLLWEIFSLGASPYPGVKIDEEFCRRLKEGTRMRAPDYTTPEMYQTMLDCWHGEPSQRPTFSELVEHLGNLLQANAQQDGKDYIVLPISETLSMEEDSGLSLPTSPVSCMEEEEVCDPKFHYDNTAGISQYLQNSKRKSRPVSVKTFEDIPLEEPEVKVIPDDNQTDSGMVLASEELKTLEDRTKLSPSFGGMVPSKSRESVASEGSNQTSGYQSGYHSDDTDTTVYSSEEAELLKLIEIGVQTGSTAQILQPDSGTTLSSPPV
# Description: as §1, §2
# EphA1 = target: T2, EphA1 (Homo sapiens, UniProt P21709); experiment: TR-FRET kinase assay, EphA1; conditions: Kinase Concentration 0.5 nM; 50 nM ULight-labeled substrate, 200 micromolar ATP, 2 hours
# T2 sequence (P21709 26-976): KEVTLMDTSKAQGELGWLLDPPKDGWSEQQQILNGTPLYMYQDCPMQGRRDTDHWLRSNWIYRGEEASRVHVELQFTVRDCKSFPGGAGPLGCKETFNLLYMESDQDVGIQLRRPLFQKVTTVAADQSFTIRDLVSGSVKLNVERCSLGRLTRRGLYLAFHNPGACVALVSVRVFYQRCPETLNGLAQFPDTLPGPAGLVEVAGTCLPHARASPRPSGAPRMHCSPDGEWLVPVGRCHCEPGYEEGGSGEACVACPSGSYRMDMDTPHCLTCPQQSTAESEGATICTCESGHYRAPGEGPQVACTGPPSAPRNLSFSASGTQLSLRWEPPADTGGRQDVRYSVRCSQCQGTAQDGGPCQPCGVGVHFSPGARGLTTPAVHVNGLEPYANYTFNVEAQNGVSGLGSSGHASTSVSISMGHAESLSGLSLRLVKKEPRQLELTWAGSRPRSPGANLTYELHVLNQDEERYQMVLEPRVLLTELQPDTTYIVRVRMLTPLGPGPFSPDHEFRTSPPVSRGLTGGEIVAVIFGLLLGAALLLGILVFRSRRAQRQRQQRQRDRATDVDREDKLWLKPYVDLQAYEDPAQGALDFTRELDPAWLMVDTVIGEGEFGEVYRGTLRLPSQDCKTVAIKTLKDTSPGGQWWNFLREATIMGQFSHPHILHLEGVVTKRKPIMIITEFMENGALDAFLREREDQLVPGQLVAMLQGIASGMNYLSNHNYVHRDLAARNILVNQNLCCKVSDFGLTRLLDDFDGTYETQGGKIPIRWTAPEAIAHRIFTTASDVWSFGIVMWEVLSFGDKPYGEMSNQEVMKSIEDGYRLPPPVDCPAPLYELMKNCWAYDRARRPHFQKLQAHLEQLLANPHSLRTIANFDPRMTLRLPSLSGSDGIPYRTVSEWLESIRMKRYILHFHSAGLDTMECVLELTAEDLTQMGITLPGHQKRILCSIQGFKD
# Description: as §1, §2
# FLT1 = FLT1 (Homo sapiens, UniProt P17948); experiment: TR-FRET kinase assay, FLT1; conditions: Kinase Concentration 0.25 nM; 50 nM ULight-labeled substrate, 200 micromolar ATP, 2 hours
# Sequence of FLT1 (P17948 27-1338, species assumed): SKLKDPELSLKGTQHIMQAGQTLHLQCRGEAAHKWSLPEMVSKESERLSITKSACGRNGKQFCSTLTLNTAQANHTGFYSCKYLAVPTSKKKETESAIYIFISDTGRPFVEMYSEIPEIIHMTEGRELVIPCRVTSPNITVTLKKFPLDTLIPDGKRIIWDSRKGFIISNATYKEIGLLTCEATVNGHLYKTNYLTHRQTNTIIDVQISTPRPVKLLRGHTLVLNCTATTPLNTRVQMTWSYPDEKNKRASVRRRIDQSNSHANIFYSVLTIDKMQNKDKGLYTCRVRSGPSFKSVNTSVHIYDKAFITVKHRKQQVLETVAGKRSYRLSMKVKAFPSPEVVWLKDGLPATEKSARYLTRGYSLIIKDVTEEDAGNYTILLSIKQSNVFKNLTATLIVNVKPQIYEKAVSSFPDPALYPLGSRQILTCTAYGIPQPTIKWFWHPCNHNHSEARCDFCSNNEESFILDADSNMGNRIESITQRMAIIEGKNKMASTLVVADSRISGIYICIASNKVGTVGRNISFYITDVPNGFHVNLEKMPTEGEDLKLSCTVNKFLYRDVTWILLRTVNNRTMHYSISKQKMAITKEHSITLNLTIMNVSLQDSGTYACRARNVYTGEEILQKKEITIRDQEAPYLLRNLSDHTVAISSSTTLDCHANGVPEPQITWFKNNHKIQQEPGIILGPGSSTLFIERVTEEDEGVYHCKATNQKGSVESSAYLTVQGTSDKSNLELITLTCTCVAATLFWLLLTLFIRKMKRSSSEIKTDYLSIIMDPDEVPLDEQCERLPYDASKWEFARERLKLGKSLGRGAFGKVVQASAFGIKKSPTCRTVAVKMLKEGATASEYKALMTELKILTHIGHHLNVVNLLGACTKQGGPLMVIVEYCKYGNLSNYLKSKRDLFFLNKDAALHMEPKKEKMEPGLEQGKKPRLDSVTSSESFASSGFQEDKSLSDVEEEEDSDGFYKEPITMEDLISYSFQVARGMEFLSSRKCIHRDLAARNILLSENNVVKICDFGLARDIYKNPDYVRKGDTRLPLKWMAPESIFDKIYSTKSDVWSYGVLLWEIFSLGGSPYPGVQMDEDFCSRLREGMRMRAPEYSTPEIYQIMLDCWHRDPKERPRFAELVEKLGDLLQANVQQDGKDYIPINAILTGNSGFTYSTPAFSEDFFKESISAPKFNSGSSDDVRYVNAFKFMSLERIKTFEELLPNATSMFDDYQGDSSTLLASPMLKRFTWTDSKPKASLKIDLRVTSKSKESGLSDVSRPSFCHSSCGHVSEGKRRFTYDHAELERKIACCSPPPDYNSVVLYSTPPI
# Description: as §1, §2
# ALK = ALK (Homo sapiens, UniProt Q9UM73); experiment: TR-FRET kinase assay, ALK; conditions: Kinase Concentration 4 nM; 50 nM ULight-labeled substrate, 200 micromolar ATP, 2 hours
# Description: as §1, §2
# EphA7 = EphA7 (Homo sapiens, UniProt Q15375); experiment: TR-FRET kinase assay, EphA7; conditions: Kinase Concentration 0.5 nM; 50 nM ULight-labeled substrate, 200 micromolar ATP, 2 hours
# Sequence of EphA7 (Q15375 28-998, species assumed): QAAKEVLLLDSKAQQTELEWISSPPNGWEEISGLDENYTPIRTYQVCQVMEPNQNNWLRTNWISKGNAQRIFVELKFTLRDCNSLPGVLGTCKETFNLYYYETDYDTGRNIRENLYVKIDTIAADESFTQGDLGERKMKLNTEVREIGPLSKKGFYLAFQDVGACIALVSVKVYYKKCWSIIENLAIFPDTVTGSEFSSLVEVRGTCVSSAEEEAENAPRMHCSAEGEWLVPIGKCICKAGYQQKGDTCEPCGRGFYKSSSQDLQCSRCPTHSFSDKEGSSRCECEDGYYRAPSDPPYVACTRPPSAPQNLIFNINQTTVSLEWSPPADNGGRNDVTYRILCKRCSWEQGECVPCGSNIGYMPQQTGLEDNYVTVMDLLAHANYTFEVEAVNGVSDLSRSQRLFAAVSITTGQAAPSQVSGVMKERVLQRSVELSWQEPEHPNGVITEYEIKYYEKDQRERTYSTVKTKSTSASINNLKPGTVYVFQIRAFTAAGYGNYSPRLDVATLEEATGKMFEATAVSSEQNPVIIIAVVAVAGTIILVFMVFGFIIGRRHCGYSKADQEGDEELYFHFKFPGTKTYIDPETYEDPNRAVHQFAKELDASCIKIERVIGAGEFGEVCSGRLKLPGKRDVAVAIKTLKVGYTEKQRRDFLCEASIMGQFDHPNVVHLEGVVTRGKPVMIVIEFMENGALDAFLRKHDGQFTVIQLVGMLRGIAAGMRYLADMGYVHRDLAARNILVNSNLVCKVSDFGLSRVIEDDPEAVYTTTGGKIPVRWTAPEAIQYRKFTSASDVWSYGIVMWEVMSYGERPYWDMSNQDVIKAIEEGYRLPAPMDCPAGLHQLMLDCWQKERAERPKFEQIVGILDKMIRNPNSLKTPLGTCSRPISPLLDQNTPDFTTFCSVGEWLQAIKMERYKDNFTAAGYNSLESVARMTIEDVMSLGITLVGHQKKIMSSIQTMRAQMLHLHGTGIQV
# Description: as §1, §2
# TRKB (NTRK2) = TRKB (NTRK2) (Homo sapiens, UniProt Q16620); experiment: TR-FRET kinase assay, TRKB (NTRK2); conditions: Kinase Concentration 0.5 nM; 50 nM ULight-labeled substrate, 200 micromolar ATP, 2 hours
# Description: as §1, §2
sequence,measurement,setting,value
C AYE AYE AYE K EYA EYA EYA K AYA EYE R (CAYEAYEAYEKEYAEYAEYAKAYAEYER; tyrosine kinase substrate peptide) [BRB1],Signal to Noise ratio with BRB1 Peptide,TYRO3,6.1
same,Signal to Noise ratio with BRB1 Peptide,KDR,16.9
same,Signal to Noise ratio with BRB1 Peptide,EphA1,10.8
same,Signal to Noise ratio with BRB1 Peptide,FLT1,4.1
same,Signal to Noise ratio with BRB1 Peptide,ALK,8.8
same,Signal to Noise ratio with BRB1 Peptide,EphA7,17.2
same,Signal to Noise ratio with BRB1 Peptide,TRKB (NTRK2),28.0
